According to article PMC7314397 (Protein Science : A Publication of the Protein Society, 2020):

T1: Homo sapiens NCBD (nuclear coactivator binding domain) from CREBBP (Homo sapiens (human), UniProt Q92793 2061-2109)
T1 chain: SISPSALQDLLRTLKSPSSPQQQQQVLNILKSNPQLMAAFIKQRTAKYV


How the values were obtained:
Assay in all cases: ITC
[1] = biological target: Strongylocentrotus purpuratus NCBD (nuclear coactivator binding domain of CREBBP/p300) (Strongylocentrotus purpuratus (purple sea urchin))
[2] = biological target: Petromyzon marinus NCBD (nuclear coactivator binding domain of CREBBP/p300) (Petromyzon marinus (sea lamprey))
[3] = biological target: Homo sapiens NCBD (nuclear coactivator binding domain) from CREBBP (Homo sapiens (human)) (UniProt Q92793)
[4] = biological target: T1, Homo sapiens NCBD (nuclear coactivator …)

Row | Molecule | Kd [1] | Kd [2] | other results
1 | Homo sapiens CID (CREBBP-binding domain) from NCOA3 (ACTR) (from UniProt Q9Y6Q9 1045-1086) (domain or fragment) | 13000 nM |  | 
2 | Petromyzon marinus CID, from the first of the two NCOA proteins (domain or fragment) |  | 200 nM | 
3 | EGQSDERALLDQLHTLLSNTDATGLEEIDRALGIPELVNQGQ (domain or fragment, Homo sapiens (human)) [Homo sapiens CID (CREBBP-binding domain) from NCOA3 (ACTR)] |  |  | Kd [4]: 400 nM

More lines, main results first:

Row | Kd [1] | Kd [2] | Molecule | other results
4 |  | 200 nM | Petromyzon marinus CID, from the second of the two NCOA proteins (domain or fragment) | 
5 | 7000 to 22000 nM |  | Strongylocentrotus purpuratus CID (CREBBP-binding domain of NCOA) (domain or fragment) | Kd [3]: 4800 nM; stoichiometry N [1]: 1.7
